Where no end group is shown, it is not given here. MBP = not defined here
Legend:
HXB2 Env = biological target: T1, HXB2 Env (Human immunodeficiency virus type 1 group M subtype B, UniProt P04578); format: cell-based, HIV-1; conditions: range over cell-cell fusion and viral infectivity assays
T1 construct: expressed in transfected cells; host or cells: Chinese hamster ovary cells expressing HXB2 Env, mixed with HeLa-CD4-LTR-β-galactosidase cells
Protocol: Cell-cell fusion was monitored. HXB2 Env-expressing Chinese hamster ovary cells were mixed with HeLa-CD4-LTR-β-galactosidase cells in the presence of inhibitors for 20 h at 37° C. Syncytia were stained with 5-bromo-4-chloro-3-indolyl-β-D-galactopyranoside (X-gal) and counted.
Viral infectivity was measured by the following method: pseudotyped viruses were produced by co-transfecting 293T cells using FuGENE (Roche Applied Science) with pNL4-3.Luc.R-E- and either pEBB-HXB2 or pEBB-JRFL. After 36-48 h, viral supernatants were collected and sterile filtered. HXB2 or JRFL pseudotyped virus was added to HOS-CD4-fusin or HOS-CD4-CCR5 cells, respectively, in the presence of inhibitors. HXB2 assays included 20 μg/ml DEAE-dextran. After 12 h, virus and inhibitor were removed and replaced with fresh media. Cells were lysed 40-44 h after infection using Glo lysis buffer (Promega), and luciferase activity was measured using Bright-Glo (Promega). IC50 values for both assays were calculated by fitting data to the equation, y=k/(1+[inhibitor]/IC50), where y is the normalized number of syncytia or luciferase activity and k is the scaling constant.

IZN36-MBP = assay: co-precipitation with biotinylated IZN36-MBP on streptavidin beads; format: binding; conditions: SDS-PAGE
Protocol: This mixture is then added to magnetic streptavidin beads (Dynal), which bind to the biotinylated IZN36-MBP.

## MBP-C37: Escherichia coli maltose-binding protein fused by Ser5Gly2 linker to C37 ({MBP}-SSSSSGGHTTWMEWDREINNYTSLIHSLIEESQNQQEKNEQELLHHHHHH; reading uncertain; also: fused to maltose-binding protein (not in chain))
HXB2 Env
  reduction in potency relative to C37: 75-228 fold
IZN36-MBP
  binding to IZN36-MBP: reduced binding

Reference: patent US20070122429A1, “Designed antigens to elicit neutralizing antibodies against sterically restricted antigen and method of using same” (priority 2005, published 2007)
